Square brackets hold non-standard residues; d marks the D form. Primed or numbered codes have the meaning given here. Ends that are not written are not given here. * marks the point of attachment. Cholyl = C[C@H](CCC(=O)*)[C@H]1CC[C@H]2[C@@H]3[C@H](O)C[C@@H]4C[C@H](O)CC[C@]4(C)[C@H]3C[C@H](O)[C@]12C; βPhe = beta-form phenylalanine; βArg = beta-form arginine; βTyr = beta-form tyrosine; βPro = beta-form proline; βVal″ = beta-form valine
T1: human Angiotensin II Receptor Type 2 (AT2R) (human, UniProt P50052 1-363)
T1 construct: whole, on cells; also endogenous on human cardiac fibroblasts (functional entries); also called AT2 receptor
T1 sequence (looked up): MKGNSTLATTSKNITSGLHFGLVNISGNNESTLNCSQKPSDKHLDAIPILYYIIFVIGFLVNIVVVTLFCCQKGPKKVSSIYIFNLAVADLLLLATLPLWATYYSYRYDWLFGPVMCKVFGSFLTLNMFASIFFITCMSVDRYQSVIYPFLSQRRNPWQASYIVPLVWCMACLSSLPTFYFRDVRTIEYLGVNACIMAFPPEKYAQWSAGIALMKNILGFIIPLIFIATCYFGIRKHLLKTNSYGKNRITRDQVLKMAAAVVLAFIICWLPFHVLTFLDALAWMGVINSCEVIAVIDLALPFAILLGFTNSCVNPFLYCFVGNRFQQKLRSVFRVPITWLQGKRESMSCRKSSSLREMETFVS


Tests used:
[1] = test system: male FVB/N mice on high salt diet, heart; experiment: High salt (5%) diet intervention model, heart; format: in vivo, mouse; conditions: Cand 2 mg/kg/day
Procedure: (§1) C) In the intervention (or reversal) model, male FVB/N mice were treated with selective AT2Rs agonists after the establishment of cardiovascular disease using a high salt diet, in order to reverse cardiovascular pathologies. In some experiments, the ACE inhibitor captopril (dose) or the ARB candesartan cilexetil (dose) were given for 4 weeks in drinking water. Organs examined included heart, kidney and liver and these were compared to either untreated mice or high salt-fed mice that were treated with saline.
A high-salt diet (5% salt) model is a clinically relevant and disease-reversal model which can replicate the high salt intake by humans which is currently a growing problem in the developed countries. High salt intake induces changes in the cardiovascular system and induces remodelling and fibrosis in the heart, kidney and liver.
(§2) Mice were placed on either a normal rodent diet (0.35% NaCl) which acted as control or a high salt diet (5% sodium in food chow) for 8 weeks. After 4 weeks, mice were also treated subcutaneously (via osmotic mini-pump) with either saline or an AT2R agonist (75 pmol/kg/min subcutaneously) for 4 weeks. Mice continued to be fed a high salt diet whilst receiving these treatments.
All mice which underwent surgery were anaesthetized with Isoflurane (Isorrane) (5% induction and 2.5% maintenance) and an incision made in the midscapular region through which osmotic minipumps (Alzet model 2004, Alza Corp) were inserted for subcutaneous drug administration. The incision area was sutured with 6/0 DY silk (Dynek Pty Ltd) and antibiotic powder applied (Cicatrin, Pfizer) followed by intramuscular injection of the analgesic Cartrophen (0.1 ml of a 1.5 mg/ml stock solution; Biopharm Australia). Systolic blood pressure (SBP) was measured using non-invasive tail-cuff plethysmography apparatus (MC4000 Blood Pressure Analysis System, Hatteras Instrument Inc) before drug treatment (week 0), and then fortnightly. At the end of the 8 week treatment period mice were weighed before being killed by overdose of isoflurane inhalation and cervical dislocation.
To measure collagen deposition, frozen sections of heart, kidney or aorta (all 5 μm thickness) were air dried for 10 minutes and were brought through 3 times xylene (2 minutes each), and 3 times absolute alcohol washes before being rinsed in tap H2O for 30 seconds. Staining with an optimal concentration of picrosirius red (in this instance 0.05% picrosirius red diluted in saturated picric acid) was performed and left for an hour. Sections were then rinsed in water and differentiated in 0.01M HCl for 2 minutes, followed by dehydration via 3 times absolute alcohol washes. Then, slides were brought through 3 times xylene washes before being cover slipped according to standard histological techniques using DPX as the mounting medium. Images were taken under ×20 magnification, using bright field (Olympus, BX51) and circularized polarized light microscopy (DM IRB, Leica) while percentage of positive interstitial collagen staining per total field of view was quantified using ImageJ 1.46 software (Java, NIH), and averaged out from a total of eight views as the final percentage collagen content in a particular animal.
Immunostaining was performed on 5 μm thick transverse frozen heart sections. These sections were air dried and fixed in ice-cold acetone for approximately 15 minutes before washing with 0.01M PBS buffer (3×10 minutes). Sections were then incubated with 10% goat serum in 0.01M PBS for 30 minutes to reduce non-specific binding. If the primary antibody is raised in goat, this pre-blocked medium is substituted with 5% BSA in PBS and Triton-X. Next, blocking buffers were removed and the primary antibody to respective markers were applied overnight at room temperature based on the following dilution and origin of the antibodies: α-SMA (1:500, Abcam), Vimentin (1:500, Santa Cruz), P-IκBα (1:200, Cell Signalling), F4/80 macrophage (1:100, Serotec). […]

[2] = test system: male FVB/N mice on high salt diet, liver; experiment: High salt (5%) diet intervention model, liver; format: in vivo, mouse; conditions: weeks 5-8; peptides 75 pmol/kg/min s.c.; Cand 2 mg/kg/day, captopril 3 mg/kg/day
Procedure: as §1, §2
Liver sections used either picrosirius red staining or Masson's trichome staining as described above. Higher concentrations of picrosirius red were often used under polarized light microscopy. The liver was removed and sectioned with half of the liver placed in 10% formalin and the rest frozen in liquid nitrogen before being stored in ˜80° C. freezer for future use. Formalin fixed, paraffin embedded livers were sectioned at thickness of 4 μm and were stained with Masson's trichrome according to standard procedures for analysis of liver fibrosis. […] Sections were re-fixed in Bouin's solution for 1 hour at 56° C. to improve staining quality then rinsed in running tap water for 5-10 minutes to remove yellow colour. Following this, sections were stained in Weigert's iron hematoxylin working solution for 10 minutes. Rinsed in running warm tap water for 10 minutes. Washed in distilled water. Stained in Biebrich scarlet-acid fuchsin solution for 10-15 minutes.
Washed in distilled water. Differentiated in phosphomolybdic-phosphotungstic acid solution for 10-15 minutes or until collagen was no longer red. Sections were transferred directly (without rinse) to aniline blue solution and stained for 5-10 minutes. Rinsed briefly in distilled water and differentiated in 1% acetic acid solution for 2-5 minutes. Washed in distilled water. […] Mounted with DPX mounting medium. Quantification of liver fibrosis was performed using images captured with the Aperio scanner (Monash Histology Platform, Monash University), with ×5 magnification. Each liver section had 5 different fields of view photographed at this magnification. Percentage of interstitial and perivascular collagen was analysed and quantified using ImageJ 1.48 software (Java, NIH), and the percentage from 5 random fields of view were averaged for final percentage of collagen for that particular animal. All analysis of collagen expression was conducted in a blinded fashion.

[3] = biological target: T1, human Angiotensin II Receptor Type 2 …; experiment: competition radioligand binding on HEK-293 cells with AT2R; competitor [125I]-Sar1Ile8Ang II
Procedure: For each experiment, each ligand concentration was tested in duplicate or triplicate, and each experiment was repeated at least 3 separate times.

[4] = weeks 5-8, peptide 75 pmol/kg/min s.c., captopril 3 mg/kg/day

IC50 [3] | Molecule | also measured
20.3 nM | RVYIHP[βPhe]-OH (synthetic peptide; also called Arg-Val-Tyr-Ile-His-Pro-β-Phe) [βPhe-Ang III] | –
8.1 nM | R[βVal″]YIHPA-OH (synthetic peptide; also called Arg-β-Val-Tyr-Ile-His-Pro-Ala) [βVal-Ala-8-Ang III] | –
12.5 nM | D[βArg]VYIHPA-OH (synthetic peptide; also called Asp-β-Arg-Val-Tyr-Ile-His-Pro-Ala) [βArg-Ala-8-Ang II] | –
0.384 nM | RV[βTyr]IHPW-OH (synthetic peptide; also called β-Tyr^4-Trp^8-Ang III; β-Tyro-Trp^8-Ang III) [βTyr-Trp-8-Ang III] | –
6.5 nM | [βArg]VYIHPA-OH (synthetic peptide; also called β-Arg-Val-Tyr-Ile-His-Pro-Ala) [βArg-Ala-8-Ang III] | –

Continued, molecule first:

Molecule | IC50 [3] | also measured
C[C@H](CS)C(=O)N1CCC[C@H]1C(=O)O [captopril, reference compound] | – | MMP-13 protein expression in heart (Western blot) [1, 4]: Neither captopril nor Cand altered MMP-13 levels; macrophage infiltration/expression in heart (F4/80) [1, 4]: reversed by all agents; expression of P-IκBα (marker for NFκB activation) in heart ([1]; weeks 5-8, peptides 75 pmol/kg/min s.c., captopril 3 mg/kg/day): reversed only by β-Ile^5-Ang II; cardiac fibrosis (picrosirius red) ([1]; weeks 5-8 of high salt diet, peptides 75 pmol/kg/min s.c. mini-pump, captopril 3 mg/kg/day in drinking water): also reversed fibrosis; liver fibrosis (picrosirius red, polarized light) [2]: similarly inhibited the pro-fibrotic effects of high salt in the liver; liver steatosis (Oil Red O) [2]: significantly reduced excess lipid accumulation
Cholyl-RVYIH[βPro]F-OH (synthetic peptide; also called Cholate-Arg-Val-Tyr-Ile-His-β-Pro-Phe) [Cholic Acid-βPro-Ang III] | 0.05 nM | –
[dR]VYIHPF-OH (synthetic peptide; also called D-Arg-Val-Tyr-Ile-His-Pro-Phe) [D-Arg-Ang III] | 25 nM | –
nicotinamido-RVYIH[βPro]F-OH (synthetic peptide; also called Nicotinamido-Arg-Val-Tyr-Ile-His-β-Pro-Phe) [Nic-βPro-Ang III] | 0.12 nM | –
RV[βTyr]IHPF-OH (synthetic peptide; also called Arg-Val-β-Tyr-Ile-His-Pro-Phe) [βTyr-Ang III] | 1.82 nM | –
Ac-RVYIH[βPro]W-OH (synthetic peptide; also called N-Ac-β-Pro^7-Trp^8-Ang III; N-Ac-Pro^7-Trp^8-Ang III) [NAc-βPro-Trp-8-Ang III] | 0.34 nM | –

— patent US11331368B2, “Angiotensin receptor agonists and uses thereof” (Monash University, priority 2017, dated 2022)
